According to the supplement of paper PMC7877785:
± gives the uncertainty stated by the source.

Assay: self-splicing fitness, log relative to wild type (ln ratio); higher = more splicing; Tetrahymena group I intron in knt gene, E. coli kanamycin selection, DiMSum; sequences stand for … in CUCUCU…GGAGGGAAAAGUUAUCAGGCAUGCACCUGGUAGCUAGUCUUUAAACCAAUAGAUUGCAUCGGUUUAAAAGGCAAGACCGUCAAAUUGCGGGAAAGGGGUCAACAGCCGUUCAGUACCAAGUCUCAGGGGAAACUUUGAGAUGGCCUUGCAAAGGGUAUGGUAAUAAGCUGACGGACAUGGUCCUAACCACGCAGCCAAGUCCUAAGUCAACAGAUCUUCUGUUGAUAUGGAUGCAGUUCACAGACUAAAUGUCGGUCGGGGAAGAUGUAUUCUUCUCAUAAGAUAUAGUCGGACCUCUCCUUAAUGGGAGCUAGCGGAUGAAGUGAUGCAACACUGGAGCCGCUGGGAACUAAUUUGUAUGCGAAAGUAUAUUGAUUAGUUUUGGAGUACUCGUGGUCG
How it was run: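 The eight P1ex-region nucleotides of an intron in the knt kanamycin-resistance gene on pET-22b(+) were all randomised and the library put into E. coli BL21(DE3). Six replicate transformations were grown overnight at 37°C or 30°C on LB agar with or without 25 μg/mL kanamycin, together with 100 μg/mL carbenicillin, 50 μM IPTG and 0.2% rhamnose. Colonies were pooled and amplicon-sequenced on an Illumina HiSeq 2500. Fitness from DiMSum is the error-weighted combination of wild-type-normalised replicate fold changes, kanamycin over none.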

Sequence	self-splicing fitness (ln) (30 °C)	self-splicing fitness (ln) (37 °C)
AGUAAGCAAUAUUACGGUUC	-2.9 ± 0.19	-1.55 ± 0.44
AGUAAGCAAUAUUACGGUUG	-3.09 ± 0.23	-2.51 ± 0.25
AGUAAGCAAUAUUACGUAAA	-3.2 ± 0.34	-1.75 ± 0.21
AGUAAGCAAUAUUACGUAAC	-2.48 ± 0.23	–
AGUAAGCAAUAUUACGUACA	-0.932 ± 0.1	0.0596 ± 0.13
AGUAAGCAAUAUUACGUACU	-2.29 ± 0.12	-1.76 ± 0.18
AGUAAGCAAUAUUACGUGAG	-3.88 ± 0.15	-1.07 ± 0.11
AGUCAGCAAUAUUACGAAGU	-1.48 ± 0.084	-0.0211 ± 0.096
AGUCAGCAAUAUUACGACAG	-0.781 ± 0.12	-0.399 ± 0.14
AGUCAGCAAUAUUACGACCC	-0.401 ± 0.19	-0.72 ± 0.29
AGUCAGCAAUAUUACGAGGU	-3.4 ± 0.26	-2.62 ± 0.24
AGUCAGCAAUAUUACGAUAU	-0.289 ± 0.096	0.475 ± 0.11
AGUCAGCAAUAUUACGAUUA	0.011 ± 0.11	-0.381 ± 0.15
AGUCAGCAAUAUUACGCAUU	-0.401 ± 0.069	-0.421 ± 0.085
AGUCAGCAAUAUUACGCCUA	-0.754 ± 0.12	0.18 ± 0.15
AGUCAGCAAUAUUACGCGGU	-2.25 ± 0.15	-1.45 ± 0.11
AGUCAGCAAUAUUACGCUCC	-0.39 ± 0.17	-0.919 ± 0.16
AGUCAGCAAUAUUACGGCAU	0.126 ± 0.066	-0.106 ± 0.074
AGUCAGCAAUAUUACGGCGU	0.0847 ± 0.073	0.74 ± 0.096
AGUCAGCAAUAUUACGGUCC	-0.805 ± 0.096	0.201 ± 0.13
AGUCAGCAAUAUUACGUACC	-0.711 ± 0.15	0.605 ± 0.21
AGUCAGCAAUAUUACGUACU	-1.92 ± 0.13	-0.881 ± 0.13
AGUCAGCAAUAUUACGUGCC	-1.02 ± 0.077	0.0632 ± 0.095
AGUCAGCAAUAUUACGUGGA	-2.73 ± 0.19	-2.41 ± 0.15

Sequence	self-splicing fitness (ln) (30 °C)	self-splicing fitness (ln) (37 °C)
AGUGAGCAAUAUUACGAACC	-0.739 ± 0.16	-0.869 ± 0.24
AGUGAGCAAUAUUACGACUC	-3.04 ± 0.37	–
AGUGAGCAAUAUUACGAGAC	–	-2.17 ± 0.24
AGUGAGCAAUAUUACGAUAG	-2.34 ± 0.17	-2.18 ± 0.34
AGUGAGCAAUAUUACGCUAC	-2.96 ± 0.16	-2.3 ± 0.23
AGUGAGCAAUAUUACGGAGC	-1.89 ± 0.18	-3.36 ± 0.33
AGUGAGCAAUAUUACGGAGG	-3.77 ± 0.28	-2.67 ± 0.27
AGUGAGCAAUAUUACGGCCG	-3.46 ± 0.29	-1.59 ± 0.24
AGUGAGCAAUAUUACGGCUC	-4.11 ± 0.26	-2.03 ± 0.2
AGUGAGCAAUAUUACGGGGU	-4.06 ± 0.25	-2.67 ± 0.21
AGUGAGCAAUAUUACGGGUU	-2.39 ± 0.26	-2.35 ± 0.33
AGUGAGCAAUAUUACGGUCG	-3.55 ± 0.24	-1.97 ± 0.18
AGUGAGCAAUAUUACGGUGA	-3.03 ± 0.31	-2.96 ± 0.3
AGUGAGCAAUAUUACGGUGG	-3.06 ± 0.19	-2.69 ± 0.3
AGUGAGCAAUAUUACGGUGU	-4.01 ± 0.29	-3.73 ± 0.34
AGUGAGCAAUAUUACGUAAA	-3.58 ± 0.22	-1.3 ± 0.18
AGUUAGCAAUAUUACGAAUU	-1.62 ± 0.11	-0.649 ± 0.12
AGUUAGCAAUAUUACGACAG	-0.556 ± 0.098	-0.495 ± 0.12
AGUUAGCAAUAUUACGACCU	-0.34 ± 0.09	-0.469 ± 0.097
AGUUAGCAAUAUUACGACGC	-0.0216 ± 0.11	0.486 ± 0.13
AGUUAGCAAUAUUACGAUGU	-1.48 ± 0.096	-0.307 ± 0.11
AGUUAGCAAUAUUACGAUUU	0.0118 ± 0.094	0.175 ± 0.11
AGUUAGCAAUAUUACGCCUG	-1.74 ± 0.21	-1.46 ± 0.25
AGUUAGCAAUAUUACGCGGG	-4.1 ± 0.33	-0.533 ± 0.15

Sequence	self-splicing fitness (ln) (30 °C)	self-splicing fitness (ln) (37 °C)
AGUUAGCAAUAUUACGCUCG	-0.0767 ± 0.16	-0.636 ± 0.19
AGUUAGCAAUAUUACGGCAA	-0.82 ± 0.08	0.163 ± 0.11
AGUUAGCAAUAUUACGGCUA	-0.379 ± 0.11	-0.127 ± 0.11
AGUUAGCAAUAUUACGGGCU	-3.01 ± 0.28	-1.79 ± 0.24
AGUUAGCAAUAUUACGGUAC	-1.49 ± 0.2	-2.76 ± 0.28
AGUUAGCAAUAUUACGGUCU	-0.221 ± 0.081	-0.0741 ± 0.087
AGUUAGCAAUAUUACGGUGC	-3.15 ± 0.17	-2.44 ± 0.2
AGUUAGCAAUAUUACGUAUG	-1.57 ± 0.15	-2.67 ± 0.29
AGUUAGCAAUAUUACGUCAA	-3.02 ± 0.26	-0.718 ± 0.13
AGUUAGCAAUAUUACGUGCU	-2.35 ± 0.14	-1.78 ± 0.21
AUAAAGCAAUAUUACGAAAG	-2.01 ± 0.12	-1.25 ± 0.14
AUAAAGCAAUAUUACGACCG	-0.25 ± 0.13	-0.14 ± 0.18
AUAAAGCAAUAUUACGAGCU	-0.379 ± 0.06	0.246 ± 0.086
AUAAAGCAAUAUUACGAGUC	-3.52 ± 0.13	-2.07 ± 0.14
AUAAAGCAAUAUUACGCGGG	-2.55 ± 0.13	-1.4 ± 0.16
AUAAAGCAAUAUUACGCGGU	-1.8 ± 0.12	-0.6 ± 0.11
AUAAAGCAAUAUUACGCUAG	-0.761 ± 0.1	-0.165 ± 0.12
AUAAAGCAAUAUUACGGAGU	-0.717 ± 0.072	-0.598 ± 0.088
AUAAAGCAAUAUUACGGAUU	-1.15 ± 0.077	0.0214 ± 0.091
AUAAAGCAAUAUUACGGCCA	0.232 ± 0.11	0.15 ± 0.13
AUAAAGCAAUAUUACGGCUA	0.756 ± 0.14	-0.15 ± 0.14
AUAAAGCAAUAUUACGGCUC	0.203 ± 0.11	1.04 ± 0.15
AUAAAGCAAUAUUACGGUAU	-0.836 ± 0.068	-0.0795 ± 0.1
AUAAAGCAAUAUUACGGUUG	-1.68 ± 0.1	-1.36 ± 0.15

Sequence	self-splicing fitness (ln) (30 °C)	self-splicing fitness (ln) (37 °C)
AUAAAGCAAUAUUACGUCUG	-0.676 ± 0.079	-0.47 ± 0.11
AUAAAGCAAUAUUACGUGAA	-1.39 ± 0.094	-0.724 ± 0.12
AUAAAGCAAUAUUACGUGCG	-0.493 ± 0.083	0.137 ± 0.1
AUACAGCAAUAUUACGAAAG	-2.62 ± 0.19	-0.9 ± 0.17
AUACAGCAAUAUUACGAACC	-2.11 ± 0.15	-0.458 ± 0.16
AUACAGCAAUAUUACGAACU	-0.142 ± 0.079	0.0661 ± 0.099
AUACAGCAAUAUUACGAAGU	-3.31 ± 0.12	-1.22 ± 0.11
AUACAGCAAUAUUACGAAUC	-4.08 ± 0.25	-2.3 ± 0.18
AUACAGCAAUAUUACGACAA	-1.19 ± 0.093	-0.929 ± 0.12
AUACAGCAAUAUUACGACGA	-1.84 ± 0.13	-0.966 ± 0.13
AUACAGCAAUAUUACGACGG	-3.2 ± 0.15	-0.835 ± 0.13
AUACAGCAAUAUUACGAGUU	-2.65 ± 0.14	-0.493 ± 0.1
AUACAGCAAUAUUACGAUUC	-2.06 ± 0.1	-0.118 ± 0.096
AUACAGCAAUAUUACGCAAG	-2.28 ± 0.12	-1.49 ± 0.13
AUACAGCAAUAUUACGCCAU	-2.01 ± 0.13	-0.757 ± 0.14
AUACAGCAAUAUUACGCCGG	-2.34 ± 0.17	-1.38 ± 0.21
AUACAGCAAUAUUACGCGGA	-2.02 ± 0.17	-1.74 ± 0.14
AUACAGCAAUAUUACGCUAA	-1.96 ± 0.12	-1.01 ± 0.12
AUACAGCAAUAUUACGCUUC	-3.06 ± 0.17	-3.25 ± 0.24
AUACAGCAAUAUUACGGAGA	-3.81 ± 0.33	-0.736 ± 0.27
AUACAGCAAUAUUACGGAUA	-2.52 ± 0.14	-2.38 ± 0.17
AUACAGCAAUAUUACGGCCA	-0.834 ± 0.11	-0.783 ± 0.1
AUACAGCAAUAUUACGGGAU	-0.898 ± 0.076	-0.747 ± 0.1
AUACAGCAAUAUUACGGUGU	-3.8 ± 0.2	-2.18 ± 0.13
